Laboratory results taken from publication PMC12080921.

The substances below were run against biotinylated bovine FI (assay: biolayer interferometry). Settings: n = 3; parent: 27 ± 3 nM.

Point of comparison: PmSLP-1^15-318 L127D, Kd 85 nM. Against it:
- PmSLP-1^15-318 D121A — within 1.5-fold, 117 nM
- PmSLP-1^15-318 D124R — 1.6-fold lower, 53 nM
- PmSLP-1^15-318 D210A — 3.2-fold higher, 272 nM
- PmSLP-1^15-318 E132R — 3-fold lower, 28 nM
- PmSLP-1^15-318 I133D — 2-fold lower, 43 nM
- PmSLP-1^15-318 K236E — 2.7-fold lower, 32 nM
- PmSLP-1^15-318 R167A — within 1.5-fold, 107 nM

The substances below were run against biotinylated bovine FI (bovine) (assay: BLI; Octet RED96; biotinylated bovine FI (150 nM) on streptavidin biosensors; PmSLP-1 as analyte at 0, 5, 16, 50, 160, 500, 1600 nM; 30 °C; PBS pH 7.4, 0.01% Tween 20; steady-state analysis, one-site model). Settings: not given.

PmSLP-1^15-318 (domain or fragment) gave a Kd of 27 nM.
